Data taken from article PMC5803273, “Design of ultra-swollen lipidic mesophases for the crystallization of membrane proteins with large extracellular domains” (Nature Communications, 2018).

Target: the molecule itself
Assay: crystal structure; in meso crystals from 10 wt% DSPG/MP swollen mesophase, 20 °C, 0.2 M (NH4)SO4, 0.02 M NaCl, 0.02 M Na acetate pH 4, 33% v/v PEG200; molecular replacement with 4HFI and 4NPQ; 6 Å; closed state

B1: Gloeobacter violaceus ligand-gated ion channel (GLIC) (natural protein)
chain: VSPPPPIADEPLTVNTGIYLIECYSLDDKAETFKVNAFLSLSWKDRRLAFDPVRSGVRVKTYEPEAIWIPEIRFVNVENARDADVVDISVSPDGTVQYLERFSARVLSPLDFRRYPFDSQTLHIYLIVRSVDTRNIVLAVDLEKVGKNDDVFLTGWDIESFTAVVKPANFALEDRLESKLDYQLRISRQYFSYIPNIILPMLFILFISWTAFWSTSYEANVTLVVSTLIAHIAFNILVETNLPKTPYMTYTGAIIFMIYLFYFVAVIEVTVQHYLKVESQPARAASITRASRIAFPVVFLLANIILAFLFF
notes: GLIC, Gloeobacter violaceus ligand-gated ion channel; expressed from pET20-MBP-thrombin-GLIC (N-terminal signal peptide, MBP, thrombin site, GLIC); MBP removed by thrombin; the pentamer is printed as 174 kDa, 1585 amino acids (317 per chain); also called Gloeobacter ligand-gated ion channel; GLIC pentamer; not shown: MBP, N-terminal, cleaved
stoichiometry N: 5
